Measured values from patent publication US20170066816A1 (University of Texas, published 2017).

Target: T1, pertussis toxin protein (Bordetella pertussis, UniProt P04977 35-269; P04978 28-226; P04979 29-227; P0A3R5 43-152; P04981 35-133)
T1 construct: also called PTx; PT
Test: BIAcore

Binder	kon
murine m11E6 antibody (antibody, V domains shown, also called parental murine 11E6 antibody) VH: EVKVVESGGGLVQPGGSLRLSCTTSGFTFTDYYVSWVRQPPGKALEWLGFIRNKVNGYTTEFSSSVKGRFTISRDNSQSILYLQMNTLRVEDSATYYCARVSYYGRGWYFDYWGQGTTLTVSS VL: DIVMTQSTSSLSASLGDRVTISCRASQDIDNYLSWFQQKPDGTVKLLIYYTSRLHSGVPSRFSGSGSGTDYSLTISSLDQEDIATYFCQQGNTFPWTFGGGTKLEIK	80000 M⁻¹ s⁻¹
murine m1B7 antibody (antibody, V domains shown, also called parental murine 1B7 antibody) VH: QVQLQQPGSELVRPGASVKLSCKASGYKFTSYWMHWVKQRPGQGLEWIGNIFPGSGSTNYDEKFNSKATLTVDTSSNTAYMQLSSLTSEDSAVYYCTRWLSGAYFDYWGQGTTLTVSS VL: QIVLTQSPALMSASPGEKVTMTCSASSSVSFMYWYQQKPRSSPKPWIYLTSNLPSGVPARFSGSGSGTSYSLTISSMEAEDAATYYCQQWSSHPPTFGSGTKLEIK	170000 M⁻¹ s⁻¹
chimeric 1B7 antibody (antibody, V domains shown, also called ch1B7) VH: QVQLQQPGSELVRPGASVKLSCKASGYKFTSYWMHWVKQRPGQGLEWIGNIFPGSGSTNYDEKFNSKATLTVDTSSNTAYMQLSSLTSEDSAVYYCTRWLSGAYFDYWGQGTTLTVSS VL: QIVLTQSPALMSASPGEKVTMTCSASSSVSFMYWYQQKPRSSPKPWIYLTSNLPSGVPARFSGSGSGTSYSLTISSMEAEDAATYYCQQWSSHPPTFGSGTKLEIK	150000 M⁻¹ s⁻¹
